The source of these data is patent US7667100B2, “Nucleic acid compositions conferring herbicide resistance” (Dow AgroSciences LLC, priority 2002, dated 2010).

For series [1], the system named is Nicotiana benthamiana. The experiment in a line: Evaluation of auxin tolerance in greenhouse plants inoculated with clone transcript and sprayed with herbicide. The class given is in vivo. The protocol: All primary hit sequences were evaluated for tolerance in larger plants, maintained under greenhouse conditions as described below.
Plant Growth and Maintenance. Nb seeds were sown in 6.5 cm pots filled with Redi-earth medium (The Scotts Company, Marysville, Ohio) pre-wetted by injection of Hoagland's fertilizer solution [all from the Scotts Company: 147 kg Peters Excel 15-15-15 Cal-Mag, 68 kg Peters Excel 15-0-0 Cal-Lite (15% Ca), and 45 kg Peters Excel 10-0-0 MagNitrate (10% Mg) in hot tap water to 596 L total volume] into irrigation water at a ratio of 200:1, using an injection system (H. E. Anderson, Muskogee Okla,). Seededpots were placed in the greenhouse for 1 day, transferred to a 27° C. germination chamber (Carolina Greenhouses, Kinston, N.C.) for 2 days, and then returned to the greenhouse. Shade curtains (33% transmittance) were used in the greenhouse to reduce solar intensity. To ensure 16 hour day length and supplement solar radiation on overcast days, artificial lighting consisting of a 1:1 mixture of metal halide and high pressure Sylvania sodium lamps was used, delivering approximately 220 μmol/m^2/s. Evaporative cooling and steam heat were used to maintain a daytime set point of 27° C. and a nighttime temperature of 22° C. At approximately 7 days post sowing (dps), seedlings were thinned to one seedling per pot and at 17 to 21 dps, the pots were spaced farther apart to accommodate plant growth. Plants were watered with Hoagland's solution as required. Following inoculation, waste irrigation water was collected and treated with 0.5% sodium hypochlorite for 10 minutes to neutralize any viral contamination before discharging into the municipal sewer.
Plant Inoculation. For each clone, 50 test plants as well as 10 GFP and bar (Thompson et al., EMBO J. 6:2519 [19870]) negative control plants were inoculated as follows: 2.0 mL of inoculum per clone were prepared by combining equal volumes of NCAP transcript and FES buffer [0.1 M glycine, 0.06 M K2HPO4, 1% sodium pyrophosphate, 1% diatomaceous earth (Sigma Chemical Company, St. Louis, Mo.), and either 1% silicon carbide (Aldrich Chemical Company, Milwaukee, Wis.), or 1% Bentonite (Sigma Chemical Company, St. Louis, Mo.)]. The inoculum was applied to each plant at 17 days post sowing by pipetting onto the upper surface of leaves 3 and 4 (˜20 μL per leaf). The inoculum was then spread across each leaf surface using a 3″ cotton tipped applicator (Calapro Swab, Fisher Scientific, Pittsburgh, Pa.) and a gloved finger to support the leaf. Following inoculation the plants were misted with deionized water.
Infection Scoring. At 8 days post inoculation (dpi), the plants were visually examined and a numerical score was assigned to each plant to indicate the extent of viral infection symptoms: 0=no infection, 1=possible infection, 2=infection symptoms limited to leaves <50-75% fully expanded, 3=typical systemic infection, 4=atypically severe infection, often accompanied by moderate to severe wilting and/or necrosis. Plants receiving an infection rating of 0, 1, or 4 were discarded.
Herbicide spraying. At 9 dpi, the well infected plants (infection score of 3, sometimes 2) were divided into 3 treatment groups. Group 1, to be sprayed with solvent only, contained 4 plants per test clone (2 plants per negative control) and Groups 2 and 3, to be treated with 13 or 40 g ae/ha, respectively, each consisted of 12 test plants per clone and 2 plants per negative control. […]

Series [2] relates to Nicotiana benthamiana. In words: Cross-resistance testing against six auxin compounds (greenhouse). The class given is in vivo. The text has this:
Six compounds, representing five classes of auxin chemistry, were selected for testing the extent of auxinic tolerance of five hit sequences (129965 (SEQ ID NO:10), 130213 (SEQ ID NO: 14), 130294 (SEQ ID NO:360), 130994 (SEQ ID NO:361), and 129870 (SEQ ID NO:359)). The compounds included the following: • 1) quinclorac (BASF Corp., Research Triangle, N.C.) • 2) (2,4-dichlorophenoxy) acetic acid (Dow AgroSciences, Indianapolis, Ind.) • 3) dicamba (Monsanto, St. Louis, Mo.) • 4) benazolin (AgrEvo USA Company, Wilmington, Del.) • 5) picloram (Dow AgroSciences, Indianapolis, Ind.) • 6) 4-amino-3,6-dichloropyridine-2-carboxylic acid (Dow AgroSciences, Indianapolis, Ind.) Compound #6 served as a positive control, as these five sequences were identified for their herbicide tolerant function using this auxin (see Example 9). Compound #1 represents the quinoline carboxylic acid chemical family, #2 is in the phenoxy carboxylic acid class, #3 is benzoic acid chemistry, #4 is unique to any currently defined class, and #5 is in the same family as the positive control, pyridine carboxylic acids.
The protocol was essentially the same as that described in Example 9 for greenhouse evaluations. However, an individual experiment consisted of 200 test plants plus 35 GFP and 35 bar negative control plants inoculated per clone. […] Two doses per auxin were tested, with as many as 12 well-infected test plants and 2 of each of the negative controls per dose.
The six auxin solutions were prepared by dissolving solid compound in General Purpose Solvent (GPS: 97%DMSO: 3% acetone) to achieve the following spray rates (g ae/ha) when using the spray applicator and parameters outlined in Example 9: Compound #1) 200; 2) 42; 3) 64; 4) 200; 5) 10; 6) 10. From each of these solutions, a portion was diluted with an equal volume of GPS, resulting in 1× (“high dose”) and ½× (“low dose”) concentrations for spraying. Before spray application, each auxin solution was mixed with an equal volume of diluent containing surfactants for effective penetration. The diluent was prepared as follows: 420 mL GPS, 460 mL DI water, 120 mL isopropyl alcohol, 10.167 mL Agri-Dex (Helena Chemical Co., Memphis, Tenn.), and 0.167 mL Triton X-155 (Sigma Chemical Co., St. Louis, Mo.). In addition to the 200 and 100 g ae/ha rates tested for Compound #4 (benazolin), a concentration of 250 g ae/ha was also formulated as described above and tested.
Plants were sprayed and evaluated as described in Example 9. FIG. 7 summarizes the sequences tested and the highest dose of the compounds against which tolerance was observed. […] Results are reported in FIG. 7 for each of the trials with each construct.
The positive control (Compound #6) was formulated differently in this set of evaluations from that described in Example 9, for consistency in the solvent/surfactant background from which to compare the activity of the individual sequences against each auxin. Thus, the spray rate used for evaluation was lower than previous experiments, 5 vs. 13 g ae/ha. The need to lower the dose with this formulation to prevent total chlorosis and/or necrosis was likely due to the addition of DMSO, Agri-Dex, and Triton X-155 which were not used in Example 9.

B1: 130213: Poppy cDNA clone; auxin tolerance hit sequence (nucleic acid)
DNA: TTAATTAAGTCGACGAATTCATATGAAGAAATGGTTGAATTTATGGAAAAAGTAACAACAAATGTTGAATCAGAGGAACTTTCAGTTGAAGAGAGAAATTTATTGTCAGTTGCTTACAAAAATGTGATTGGTGCACGCAGAGCATCATGGAGAATTATTTCATCAATTGAACAGAAAGAAGAAAGCCGTGGTAACGAAGAGAATGTATTGACCATTCGTGATTATAGATCTAAGATTGAAACTGAACTTTCAGGCATCTGTGATGGGATTTTGAAGTTGCTTGATACTAGATTGATTCCATCTGCATCTTCTGGTGATTCTAAAGTGTTTTATTTGAAAATGAAAGGTGATTATCATCGTTATTTGGCTGAGTTTAAAACTGGTACCGAAAGGAAAGAAGCTGCTGAAAGTACCCTTTCTGCTTATAAATCTGCTCAGGATATCGCAACTGCTGAACTTGCACCCACTCACCCAATCAGGCTGGGACTTGCTCTTAACTTTCTCCGTCTTTTACTACGAGATCTTGAATTCTCCTGCCGTGCTTGTAATCTCGCCAAACAGGCATTTGATGAGGCTATCGCGGAGCTGGATACCCTTGGTGAAGAATCATACAAAGACAGCACTCTAATCATGCAGCTCCTTCGTGACAATCTTACTCTGTGGACCTCCGACATGCAGGATGATGGTGCAGATGAAATTAAAGAAGCATCCAAGCCTGAAGATGAACATTAATGATAGTTTGTCTGCCACATTTAGGATCTTACCTCCTCTCAGTTTGTTTTATTAAAAGGAGAAGGTGCTTTCTTGGTACACAACTCCTCCAAGTCTACTATTAATTATTAAGGAGTTTAGGGTGGGTACTGTTAGTTTGTCATTCTTCTTATCCTTTGTGCTCGTCTTTTCCTATCTTAATTCTTCTCTTAAAAGAGTTTGAAGTTATATGTTTATCTGAATCTGTGTGGGAACTCCGTTTTATCTAAATTATCTTTTAAGATGACGATAAAAAAAAAAAAAAAAAAA
modifications: Poppy
In the case of B1, the “plants demonstrating auxin tolerance” value in the series with Nicotiana benthamiana [1] (14 days after treatment (dat), 130213 homolog trial, tolerance = 25% injury or less after 13 or 40 g ae/ha 4-amino-3,6-dichloropyridine-2-carboxylic acid) is recorded as 17%. The “reproducibility of auxin tolerance from Trial #1 to Trial #2” value in the series on Nicotiana benthamiana [1] (greenhouse, 30% or more of test population tolerant by 14 dat) is given as “reproducible auxin tolerance”. In addition, the “tolerance to picloram (Compound #5)” value in the series with Nicotiana benthamiana [2] (10 g ae/ha and 1/2x) was “additional tolerance to picloram and quinclorac when the 35% injury tolerance criterion was used”. Further, the “tolerance to positive control 4-amino-3,6-dichloropyridine-2-carboxylic acid (Compound #6)” value in the series on Nicotiana benthamiana [2] (10 g ae/ha and 1/2x (5 g ae/ha)) is recorded as “tolerance consistently occurred at the lower threshold (25% injury or less)”. Besides, the “tolerance to dicamba (Compound #3)” value in the series on Nicotiana benthamiana [2] (64 g ae/ha and 1/2x) is on record as “strongly effective”. For the same molecule, the “tolerance to quinclorac (Compound #1)” value in the series with Nicotiana benthamiana [2] (200 g ae/ha and 1/2x) was “additional tolerance to picloram and quinclorac when the 35% injury tolerance criterion was used”. Also, the “extent of cross-resistance to the six auxin compounds” value in the series on Nicotiana benthamiana [2] (two trials, two doses per auxin, thresholds 25% or 35% injury or less) is “tolerance was observed against four compounds”.
